Assay results reported in patent publication US20230365705A1 (DYNAMICURE BIOTECHNOLOGY, published 2023).
Values belong to the binder of their own block, whether it stands above or below them.

How the values were obtained:
[1] = biological target: T1, Human CD93 recombinant protein (Sino Biological Inc, Catalog #12589-H08H) (human, UniProt Q9NPY3 22-580); experiment: BLI (Octet QKe), biotinylated human CD93 on streptavidin biosensors; antibody stored 4 weeks at 40 C
T1 construct: Biotinylated (EZ-LINK NHS-PEG4 biotin) in the BLI assays; also called hCD93; His-tagged human CD93
T1 sequence (looked up): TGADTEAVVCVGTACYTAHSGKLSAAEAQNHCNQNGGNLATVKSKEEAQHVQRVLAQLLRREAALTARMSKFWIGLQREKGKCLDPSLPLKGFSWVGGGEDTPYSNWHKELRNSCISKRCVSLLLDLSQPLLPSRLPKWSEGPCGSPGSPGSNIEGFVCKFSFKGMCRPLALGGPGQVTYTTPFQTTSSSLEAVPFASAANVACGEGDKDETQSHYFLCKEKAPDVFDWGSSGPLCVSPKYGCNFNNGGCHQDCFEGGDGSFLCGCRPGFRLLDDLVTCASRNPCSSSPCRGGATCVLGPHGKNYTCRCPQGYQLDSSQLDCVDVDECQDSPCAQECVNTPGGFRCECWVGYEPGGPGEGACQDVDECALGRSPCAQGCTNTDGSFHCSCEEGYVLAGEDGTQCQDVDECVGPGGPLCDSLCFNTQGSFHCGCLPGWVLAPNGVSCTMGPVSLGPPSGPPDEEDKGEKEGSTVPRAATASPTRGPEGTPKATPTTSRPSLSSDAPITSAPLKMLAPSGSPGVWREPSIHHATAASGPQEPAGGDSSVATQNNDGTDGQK
Method: The binding affinity of anti-CD93 antibodies was determined with bio-layer interferometry using Octet QKe (Fortebio). […] Human CD93 recombinant protein (Sino Biological Inc, Catalog #12589-H08H) was biotinylated using EZ-LINK NHS-PEG4 biotin (Thermo Fisher Scientific). Streptavidin biosensors (Fortebio) were used to load biotinylated CD93 protein (300 seconds in 5 μg/ml). Baseline was stabilized for 60 seconds in 1×kinetics buffer (Fortebio) before anti-CD93 antibodies, at a serial dilution, were allowed to associate for 300 seconds with captured protein. Then the sensors were dissociated in 1× kinetics buffer for 600 seconds. […] (FIG. 41).

[2] = biological target: T2, Human CD93 on cells (human CD93 expressing CHO cells; HUVEC, U937 and KG1a cells) (human, UniProt Q9NPY3 22-652); experiment: flow cytometry blocking assay, HUVEC cells; blocked ligand hIGFBP7-His 0.1 ug/ml; blocking activity runs from about 46 to about 72 % of control
T2 construct: whole, on cells; also called hCD93 expressing CHO cells; hCD93 CHO cells
T2 sequence (looked up): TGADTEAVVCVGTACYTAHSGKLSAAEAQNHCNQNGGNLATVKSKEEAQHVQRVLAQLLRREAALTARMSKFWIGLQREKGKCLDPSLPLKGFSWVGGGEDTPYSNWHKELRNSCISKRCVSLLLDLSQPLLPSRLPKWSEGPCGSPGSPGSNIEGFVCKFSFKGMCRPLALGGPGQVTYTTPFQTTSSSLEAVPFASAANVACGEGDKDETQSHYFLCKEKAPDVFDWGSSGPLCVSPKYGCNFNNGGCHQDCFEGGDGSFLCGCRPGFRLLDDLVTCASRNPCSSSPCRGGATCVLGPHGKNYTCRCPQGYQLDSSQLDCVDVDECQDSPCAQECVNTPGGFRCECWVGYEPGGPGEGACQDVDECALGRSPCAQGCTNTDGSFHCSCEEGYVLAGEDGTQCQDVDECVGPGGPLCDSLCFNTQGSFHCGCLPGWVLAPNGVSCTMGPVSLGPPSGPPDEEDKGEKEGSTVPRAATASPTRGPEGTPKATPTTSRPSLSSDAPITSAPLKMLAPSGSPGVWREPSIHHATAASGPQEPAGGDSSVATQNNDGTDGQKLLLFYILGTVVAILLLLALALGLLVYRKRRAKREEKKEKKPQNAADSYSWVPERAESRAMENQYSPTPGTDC
Method: After washing with FACS buffer twice, the samples were analyzed and data acquired in NovoCyte Flow.

[3] = biological target: T1, Human CD93 recombinant protein (Sino …); experiment: BLI (Octet QKe), biotinylated CD93 on streptavidin biosensors; table under the hCD93 panels
Method: (§1) The binding affinity of anti-CD93 antibodies were determined with bio-layer interferometry using Octet QKe (Fortebio). Human CD93 recombinant protein (Sino Biological Inc, Catalog #12589-H08H) or cynomolgus CD93 protein (made in-house) were biotinylated using EZ-LINK NHS-PEG4 biotin (Thermo Fisher Scientific). Streptavidin biosensors (Fortebio) were used to load biotinylated CD93 protein (300 seconds at 5 μg/ml). The baseline was stabilized for 60 seconds in a 1× kinetics buffer (Fortebio) before serially diluted anti-CD93 antibodies were allowed to associate for 300 seconds with captured protein. The sensors were dissociated in a 1× kinetics buffer for 600 seconds.

[4] = biological target: T3, cynomolgus CD93 protein (made in-house) (cynomolgus, UniProt A0A2K5VH53 22-580); experiment: BLI (Octet QKe), biotinylated CD93 on streptavidin biosensors; table under the cynoCD93 panels
T3 construct: Biotinylated in BLI; also called cyno CD93; cynoCD93
T3 sequence: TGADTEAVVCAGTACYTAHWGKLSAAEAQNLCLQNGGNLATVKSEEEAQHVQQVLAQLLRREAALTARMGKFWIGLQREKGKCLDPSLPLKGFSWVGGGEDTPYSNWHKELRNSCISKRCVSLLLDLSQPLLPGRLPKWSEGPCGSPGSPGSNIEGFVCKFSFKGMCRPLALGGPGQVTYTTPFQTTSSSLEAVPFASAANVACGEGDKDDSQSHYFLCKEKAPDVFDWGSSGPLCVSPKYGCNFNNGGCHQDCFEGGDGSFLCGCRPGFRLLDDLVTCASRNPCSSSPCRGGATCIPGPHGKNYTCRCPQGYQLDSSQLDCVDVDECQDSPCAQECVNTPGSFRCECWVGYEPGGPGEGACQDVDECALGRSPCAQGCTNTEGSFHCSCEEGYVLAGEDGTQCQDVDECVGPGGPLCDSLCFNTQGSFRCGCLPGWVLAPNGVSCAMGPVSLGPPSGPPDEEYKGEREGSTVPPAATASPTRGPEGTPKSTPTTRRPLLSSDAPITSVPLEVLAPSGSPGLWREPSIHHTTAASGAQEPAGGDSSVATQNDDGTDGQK
Method: as §1

Kd [1]: 0.487 nM
koff [1]: 0.000386 s⁻¹
kon [1]: 793000 M⁻¹ s⁻¹
IC50 [2]: 1 nM
B1: h7F3 (humanized 7F3, VH3+VL3) (antibody, human IgG1, V domains shown)
VH: QVQLVQSGAEVKKPGASVKVSCKASGYTFTDYEMHWVRQAPGQGLEWMGGIDPETGDTAYNQNFKGRVTMTTDTSTSTAYMELRSLTSDDTAVYYCTNYGNLYYYAMDYWGQGTSVTVSS
VL: EIVLTQSPSSLSASVGDRVTITCRASSSVSSSYLHWYQQKPGKAPKLLIYSTSNLAFGVPSRFSGSGSGTSYTFTISSLQPEDIATYYCQQYSGYPLTFGSGTKLEIK
notes: also called humanized 7F3-hIgG1

Kd [3]: 0.447 nM
koff [3]: 0.000429 s⁻¹
kon [3]: 960000 M⁻¹ s⁻¹
Kd [4]: 0.446 nM
kon [4]: 663000 M⁻¹ s⁻¹
B2: 16E4 (hybridoma) (antibody, IgG2a, V domains shown)
VH: QVQLQQPGAELVKPGASVKLSCKASGYTFTSYWMHWVKQRPGQGLEWIGEIDPSASYTYYNQKFKGKATLTVDKSSSTAYMQLSSLTSEDSAVYYCARSVYYGNKYFDVWGAGTTVTVSS
VL: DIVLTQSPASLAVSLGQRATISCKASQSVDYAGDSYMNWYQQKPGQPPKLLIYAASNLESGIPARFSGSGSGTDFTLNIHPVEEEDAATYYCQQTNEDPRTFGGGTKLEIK
notes: also called 16E4 mAb; 16E4 mIgG2a
